In patent US20030162190, “Phosphoromonothioate and phosphorodithioate oligonucleotide aptamer chip for functional proteomics” (published 2003):

Molecular target: NF-kB p65 (RelA) homodimer (UniProt Q04206 Q04206:1-551)
Experiment: EMSA; competitive EMSA; 5 to 15-fold tighter to p65/p65 than p50 homodimer
Settings: chain copies: 2 (stated homodimer)
Description: The example used to illustrate that when only one or two dithioate linkages were placed in a molecule, the inhibition/binding of the oligonucleotide to recombinant protein was similar to that of the unsubstituted aptamer illustrates is shown in FIG. 3—as the substitutions of dithiophosphate were increased, binding by the [S₂]-ODN oligonucleotide increased dramatically. For example, in a standard competitive binding assay, ³²P-IgκB promoter element ODN is incubated with recombinant p65 and varying amounts of XBY aptamer competitor. The relative binding ability of the unlabeled ODNs is determined by the concentration needed to effectively compete with the standard labeled ODN. XBY1 through 6 correspond to CK-14 aptamers with 1 through 6 dithiophsphate substitutions, respectively. The present inventors, according to an embodiment of this invention, developed an oligonucleotide containing six dithioate linkages on the two strands, termed XBY-6.
Competitive binding of XBY-6 to p65 homodimers is performed using EMSAs. XBY-6 concentrations are 1.95 (triangle), 3.89 (open circle), and 7.77 (closed circle).

NF-kB p65 (RelA) homodimer, sequence (Q04206 whole entry, one chain of several): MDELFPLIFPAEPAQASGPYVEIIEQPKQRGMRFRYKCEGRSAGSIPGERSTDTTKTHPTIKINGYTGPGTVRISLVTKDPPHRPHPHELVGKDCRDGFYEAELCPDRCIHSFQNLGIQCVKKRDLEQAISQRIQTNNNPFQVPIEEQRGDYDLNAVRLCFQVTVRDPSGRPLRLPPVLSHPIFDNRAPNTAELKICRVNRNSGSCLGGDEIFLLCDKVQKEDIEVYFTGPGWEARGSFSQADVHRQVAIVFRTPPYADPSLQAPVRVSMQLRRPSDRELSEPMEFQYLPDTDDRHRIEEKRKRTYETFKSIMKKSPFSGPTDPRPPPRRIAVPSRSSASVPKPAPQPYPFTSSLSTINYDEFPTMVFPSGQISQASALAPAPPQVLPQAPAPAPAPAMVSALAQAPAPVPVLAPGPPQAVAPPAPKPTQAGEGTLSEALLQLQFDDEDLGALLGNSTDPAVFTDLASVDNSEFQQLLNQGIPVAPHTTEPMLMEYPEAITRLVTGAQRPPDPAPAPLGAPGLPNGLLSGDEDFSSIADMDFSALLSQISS

B1: XBY-6 (dsDNA)
DNA 1: CCAGGAGATTCCAC
DNA 2: GTGGAATCTCCTGG
modifications: six phosphorodithioate linkages on the two strands, positions shown only in figures
Q: B1 was tested. Which Kd did it give?
A: 1.44 nM
